Test [1] has as its target T1, mMC5R (Mus musculus, UniProt P41149). The following applies: read-out: mMC5R EC50; agonist; previously reported values; cited from earlier work.
Test [2] addresses T2, mMC4R (Mus musculus, UniProt P56450). The following applies: read-out: mMC4R EC50; agonist; previously reported values; cited from earlier work.
The target of a further test is mMC3R (Mus musculus, UniProt P33033). The experiment in a line: AlphaScreen cAMP agonist assay, HEK293 cells stably expressing mMC3R. The following applies: concentrations up to 100 μM; full agonist = >90% maximal NDP-MSH stimulation. On the technique in general: Bead proximity is the source of the signal in Alpha formats.
In test [3] the target is T2, mMC4R. The experiment in a line: AlphaScreen cAMP agonist assay, HEK293 cells stably expressing mMC4R. The following applies: agonist potency ratio.
For another test, the target named is mMC1R (Mus musculus, UniProt Q01727). The experiment in a line: AlphaScreen cAMP agonist assay, HEK293 cells stably expressing mMC1R. The following applies: full agonist = >90% maximal NDP-MSH stimulation.
Test [4] concerns the target T1, mMC5R. The test can be described thus: AlphaScreen cAMP agonist assay, HEK293 cells stably expressing mMC5R. The following applies: agonist potency ratio.
For test [5], the target named is T2, mMC4R. The note with it: AGRP/NDP-MSH chimeric ligands; cited from earlier work.
Test [6] deals with mouse melanocortin 1 receptor (mouse) (UniProt Q01727).
The target in test [7] is mouse melanocortin 3 receptor (mouse) (UniProt P33033).
Test [8] has as its target mouse melanocortin 5 receptor (mouse) (UniProt P41149).
For test [9], the target named is mouse melanocortin 4 receptor (mouse) (UniProt P56450).

Entries after “also recorded” stand apart in the source; their conditions may differ. Square brackets hold non-standard residues; d marks the D form. Peptide text beside a SMILES is read from it. Dap = NC[C@H](N)C(=O)O Bounds are passed on as bounds.

Chain of mouse melanocortin 5 receptor (mouse) (P41149 whole entry): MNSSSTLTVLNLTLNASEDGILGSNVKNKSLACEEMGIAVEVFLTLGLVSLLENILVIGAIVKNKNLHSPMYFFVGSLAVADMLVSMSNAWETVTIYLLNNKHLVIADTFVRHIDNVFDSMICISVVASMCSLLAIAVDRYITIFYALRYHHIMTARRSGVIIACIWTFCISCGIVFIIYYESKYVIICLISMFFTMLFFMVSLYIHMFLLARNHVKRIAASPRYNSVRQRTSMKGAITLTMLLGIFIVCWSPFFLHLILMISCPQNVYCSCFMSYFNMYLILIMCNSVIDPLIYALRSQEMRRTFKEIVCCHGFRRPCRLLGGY
Chain of mouse melanocortin 1 receptor (mouse) (Q01727 whole entry): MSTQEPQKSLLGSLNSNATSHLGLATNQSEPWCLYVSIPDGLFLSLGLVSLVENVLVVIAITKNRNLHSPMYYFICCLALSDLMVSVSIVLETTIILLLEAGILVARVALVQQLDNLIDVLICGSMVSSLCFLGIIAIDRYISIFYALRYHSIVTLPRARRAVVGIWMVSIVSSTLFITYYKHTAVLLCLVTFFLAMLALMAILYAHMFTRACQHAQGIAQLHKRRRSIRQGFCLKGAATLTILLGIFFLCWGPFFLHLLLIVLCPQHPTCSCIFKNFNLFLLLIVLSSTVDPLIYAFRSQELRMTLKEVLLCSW
T2 sequence (P56450 whole entry): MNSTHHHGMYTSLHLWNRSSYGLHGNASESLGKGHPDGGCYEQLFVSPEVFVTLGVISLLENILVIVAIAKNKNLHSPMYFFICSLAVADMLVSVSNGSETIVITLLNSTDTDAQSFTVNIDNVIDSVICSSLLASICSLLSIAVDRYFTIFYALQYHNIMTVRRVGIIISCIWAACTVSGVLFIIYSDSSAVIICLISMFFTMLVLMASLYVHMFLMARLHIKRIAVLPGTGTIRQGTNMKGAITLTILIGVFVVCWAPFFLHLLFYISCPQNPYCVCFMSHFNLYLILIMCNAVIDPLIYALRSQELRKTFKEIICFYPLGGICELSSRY
Chain of mouse melanocortin 4 receptor (mouse) (P56450 whole entry): as above
Chain of mouse melanocortin 3 receptor (mouse) (P33033 whole entry): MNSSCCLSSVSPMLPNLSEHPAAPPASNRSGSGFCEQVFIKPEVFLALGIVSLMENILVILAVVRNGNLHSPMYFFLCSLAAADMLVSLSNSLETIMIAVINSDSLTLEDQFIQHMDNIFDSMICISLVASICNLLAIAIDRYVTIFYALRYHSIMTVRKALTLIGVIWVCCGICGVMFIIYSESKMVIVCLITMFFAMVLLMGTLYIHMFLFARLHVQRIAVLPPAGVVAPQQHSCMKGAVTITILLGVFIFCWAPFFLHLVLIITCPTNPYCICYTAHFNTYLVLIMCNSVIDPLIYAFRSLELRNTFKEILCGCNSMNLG
T1 sequence (P41149 whole entry): as the sequence (P41149 whole entry) above
Chain of mMC1R (Q01727 whole entry): as the sequence (Q01727 whole entry) above
Chain of mMC3R (P33033 whole entry): as the sequence (P33033 whole entry) above

Broadly, the EC50 is the concentration needed to bring the measured effect to its halfway point. With `CC(=O)N[C@@H](Cc1cnc[nH]1)C(=O)N[C@H](Cc1ccccc1)C(=O)N[C@@H](CCCN=C(N)N)C(=O)N[C@@H](Cc1c[nH]c2ccccc12)C(N)=O` [HfRW, Ac-His-DPhe-Arg-Trp-NH2], the EC50 was 10 ± 3 nM on mMC5R [1] and 14 ± 2 nM at mMC4R [2].
For `C[C@@H]1NC(=O)[C@H](CN)NC(=O)[C@H](Cc2c[nH]c3ccccc23)NC(=O)[C@H](CCCNC(=N)N)NC(=O)[C@@H](Cc2ccccc2)NC(=O)[C@@H]2CCCN2C(=O)[C@H]2CCCN2C1=O` [Peptide 12, c[Pro-DPhe-Arg-Trp-Dap-Ala-DPro]] (cyclo(P[dF]RW[Dap]A[dP])), the “mMC3R agonist activity/efficacy in words” value at mMC3R is reported as “partially stimulated”. On mMC4R [3], the “selectivity for the mMC4R over the mMC3R” value is reported as > 300 fold. Also, the “mMC1R agonist activity/efficacy in words” value on mMC1R is recorded as “full agonist efficacy; also recorded: full mMC1R agonists”. Moreover, the “selectivity for the mMC5R over the mMC3R” value at mMC5R [4] was > 1000 fold.
For the molecule “Tyr-c[Asp-His-DPhe-Arg-Trp-Asn-Ala-Phe-Dap]-Tyr-NH2”, the “selectivity for the mMC4R over the mMC3R (reported)” value on mMC4R [5] is on record as 5 fold.
With “Tyr-c[Cys-His-DPhe-Arg-Trp-Asn-Ala-Phe-Cys]-Tyr-NH2”, the “selectivity for the mMC4R over the mMC3R (reported)” value on mMC4R [5] is given as 7 fold.
cyclo(PH[dF]RW[Dap]AF[dP]): the agonist EC50 (cAMP AlphaScreen, HEK293 cells stably expressing the receptor) in [6] was 24 nM; in test [7], 260 nM; in test [8], 18 nM.
With cyclo(PH[dF]RW[Dap]A[dP]), the agonist EC50 (cAMP AlphaScreen, HEK293 cells stably expressing the receptor) in test [9] was determined as 1.6 nM; in [6], 1.1 nM.
With cyclo(PH[dF]RW[Dap][dP]), the agonist EC50 (cAMP AlphaScreen, HEK293 cells stably expressing the receptor) was found to be 950 nM in test [9], 460 nM in test [6] and 330 nM in test [8].
Turning to cyclo(P[dF]RW[Dap]AF[dP]), the agonist EC50 (cAMP AlphaScreen, HEK293 cells stably expressing the receptor) in [8] is 46 nM.
Consider cyclo(P[dF]RW[Dap]A[dP]), for which the agonist EC50 (cAMP AlphaScreen, HEK293 cells stably expressing the receptor) in test [9] stood at 150 nM; in test [8] it was 48 nM.

B1: c[Pro-DPhe-Arg-Trp-Asn-Ala-Phe-DPro] (peptide)
peptide: cyclo(P[dF]RWNAF[dP])
SMILES: C[C@@H]1NC(=O)[C@H](CC(N)=O)NC(=O)[C@H](Cc2c[nH]c3ccccc23)NC(=O)[C@H](CCCNC(=N)N)NC(=O)[C@@H](Cc2ccccc2)NC(=O)[C@@H]2CCCN2C(=O)[C@H]2CCCN2C(=O)[C@H](Cc2ccccc2)NC1=O
In [9], B1 showed an agonist EC50 (cAMP AlphaScreen, HEK293 cells stably expressing the receptor) of 130 nM.

B2: c[Pro-His-DPhe-Arg-Trp-Asn-Ala-Phe-DPro] (peptide)
peptide: cyclo(PH[dF]RWNAF[dP])
SMILES: C[C@@H]1NC(=O)[C@H](CC(N)=O)NC(=O)[C@H](Cc2c[nH]c3ccccc23)NC(=O)[C@H](CCCNC(=N)N)NC(=O)[C@@H](Cc2ccccc2)NC(=O)[C@H](Cc2c[nH]cn2)NC(=O)[C@@H]2CCCN2C(=O)[C@H]2CCCN2C(=O)[C@H](Cc2ccccc2)NC1=O
For B2, the agonist EC50 (cAMP AlphaScreen, HEK293 cells stably expressing the receptor) in [9] turned out to be 1.4 nM; in test [6], 0.35 nM; in test [7], 32 nM; in [8], 0.45 nM.

B3: c[Pro-His-DPhe-Arg-Trp-Asn-Ala-DPro] (peptide)
peptide: cyclo(PH[dF]RWNA[dP])
SMILES: C[C@@H]1NC(=O)[C@H](CC(N)=O)NC(=O)[C@H](Cc2c[nH]c3ccccc23)NC(=O)[C@H](CCCNC(=N)N)NC(=O)[C@@H](Cc2ccccc2)NC(=O)[C@H](Cc2c[nH]cn2)NC(=O)[C@@H]2CCCN2C(=O)[C@H]2CCCN2C1=O
On to B3, for which the agonist EC50 (cAMP AlphaScreen, HEK293 cells stably expressing the receptor) in [9] was 29 nM; in test [6] it was 12 nM; in test [8], 2.1 nM.

B4: c[Pro-DPhe-Arg-Trp-Asn-Ala-DPro] (peptide)
peptide: cyclo(P[dF]RWNA[dP])
SMILES: C[C@@H]1NC(=O)[C@H](CC(N)=O)NC(=O)[C@H](Cc2c[nH]c3ccccc23)NC(=O)[C@H](CCCNC(=N)N)NC(=O)[C@@H](Cc2ccccc2)NC(=O)[C@@H]2CCCN2C(=O)[C@H]2CCCN2C1=O
Molecule B4 returned an agonist EC50 (cAMP AlphaScreen, HEK293 cells stably expressing the receptor) in test [9] of 420 nM.

B5: c[Pro-DPhe-Arg-Trp-DPro] (peptide)
peptide: cyclo(P[dF]RW[dP])
SMILES: N=C(N)NCCC[C@@H]1NC(=O)[C@@H](Cc2ccccc2)NC(=O)[C@@H]2CCCN2C(=O)[C@H]2CCCN2C(=O)[C@H](Cc2c[nH]c3ccccc23)NC1=O
Take B5: the agonist EC50 (cAMP AlphaScreen, HEK293 cells stably expressing the receptor) in test [6] stood at 1800 nM.
Consider cyclo(PH[dF]RWN[dP]) [c[Pro-His-DPhe-Arg-Trp-Asn-DPro]], for which the results for the agonist EC50 (cAMP AlphaScreen, HEK293 cells stably expressing the receptor) in [9] and in test [8] were 170 nM and 16.8 nM, respectively.

These data come from publication PMC5639694 (Journal of medicinal chemistry, 2017).
